The text below walks through data of US10005846 (LIFEARC, dated 2018).

The target in test [1] is T1, human transglutaminase type 2 (TG2) (human, UniProt P21980 1-687).
T1 construct: Recombinant full-length human TG2 (Zedira; cat; T002 in the Biacore work); Also used here for the endogenous TG2 of HepG2 lysate and HK-2 cells; also called hTG2; rhTG2
T1 sequence: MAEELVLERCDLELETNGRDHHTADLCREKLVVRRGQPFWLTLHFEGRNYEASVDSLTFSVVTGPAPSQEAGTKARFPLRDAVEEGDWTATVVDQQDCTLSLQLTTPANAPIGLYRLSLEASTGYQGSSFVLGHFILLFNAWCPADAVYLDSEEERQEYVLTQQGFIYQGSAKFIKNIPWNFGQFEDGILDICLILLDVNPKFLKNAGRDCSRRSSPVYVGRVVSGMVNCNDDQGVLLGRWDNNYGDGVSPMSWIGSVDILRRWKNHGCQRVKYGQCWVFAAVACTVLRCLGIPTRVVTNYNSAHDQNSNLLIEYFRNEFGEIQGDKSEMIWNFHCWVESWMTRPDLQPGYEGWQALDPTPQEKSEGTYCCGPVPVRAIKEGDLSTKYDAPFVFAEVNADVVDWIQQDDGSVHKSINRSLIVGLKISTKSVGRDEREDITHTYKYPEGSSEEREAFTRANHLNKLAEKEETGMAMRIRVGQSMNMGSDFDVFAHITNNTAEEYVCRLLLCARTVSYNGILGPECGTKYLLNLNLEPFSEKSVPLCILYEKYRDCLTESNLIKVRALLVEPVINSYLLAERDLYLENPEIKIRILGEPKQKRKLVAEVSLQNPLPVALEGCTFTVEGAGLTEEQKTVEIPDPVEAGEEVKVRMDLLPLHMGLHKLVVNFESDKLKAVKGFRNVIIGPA
Kind of test: ELISA on immobilised human TG2; r2 0.9682; EC50 95% confidence range 0.03611 to 0.06410 [continued), panel B]. How it is done:
Antibody binding to human and cynomolgus monkey TG2 was determined in an ELISA assay. Clear polystyrene "Maxisorp" 96-well plates (Nunc) were coated with 50 ng purified human or cynomogulus monkey TG2 in 50 µl 0.05 M carbonate-bicarbonate buffer pH 9.6 at 4° C. overnight. Control wells were coated with 50 µl 100 µg/ml bovine serum albumin (BSA). Plates were washed 3× with 300 µl phosphate-buffered saline pH7.4 (PBS) containing 0.1% Tween 20 (PBST) and blocked with 300 µl 3% w/v Marvel skimmed milk in PBS for 1 hour at room temperature. After 3× wash with PBST, 50 µl protein-A purified chimeric or humanised anti-TG2 antibodies or human IgG1 kappa […] control antibody or CUB7402 (Abcam) were serially diluted 4-fold from a top concentration of 50 nM in PBS, and added to the plate in duplicate. […] After 3× washes with PBST, the plates were developed with 50 µl TMB substrate (Sigma) for 5 min at room temperature before stopping the reaction with 25 µl 0.5M H2SO4 and reading absorbance at 450 nm in a microtiter plate reader (BioTek EL808). Dose response curves were analysed and EC50 values and other statistical parameters determined using a 4-parameter logistical fit of the data (GraphPad Prism).
On the technique in general: An ELISA detects its analyte on a solid surface through an enzyme-linked reagent.

A further test concerns the target T2, rat TG2 (rat, UniProt Q9WVJ6 1-686, limits assumed).
T2 sequence: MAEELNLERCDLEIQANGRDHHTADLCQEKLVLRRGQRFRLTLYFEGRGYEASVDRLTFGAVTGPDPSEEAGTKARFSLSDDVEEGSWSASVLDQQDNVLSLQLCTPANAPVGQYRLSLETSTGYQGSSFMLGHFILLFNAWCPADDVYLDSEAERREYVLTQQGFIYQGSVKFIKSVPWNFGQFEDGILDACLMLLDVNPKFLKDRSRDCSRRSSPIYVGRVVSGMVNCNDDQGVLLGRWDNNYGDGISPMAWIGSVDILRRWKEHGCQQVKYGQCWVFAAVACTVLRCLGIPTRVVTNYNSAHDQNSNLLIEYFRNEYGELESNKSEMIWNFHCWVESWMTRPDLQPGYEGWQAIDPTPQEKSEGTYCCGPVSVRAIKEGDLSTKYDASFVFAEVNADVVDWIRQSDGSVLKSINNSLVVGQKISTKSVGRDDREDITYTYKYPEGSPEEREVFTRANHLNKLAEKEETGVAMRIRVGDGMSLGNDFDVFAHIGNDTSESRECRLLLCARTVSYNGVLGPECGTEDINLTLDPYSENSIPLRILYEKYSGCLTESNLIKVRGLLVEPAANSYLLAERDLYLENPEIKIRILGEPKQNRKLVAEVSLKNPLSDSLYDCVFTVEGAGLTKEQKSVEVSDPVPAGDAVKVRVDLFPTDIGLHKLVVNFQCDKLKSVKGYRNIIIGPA
Kind of test: western blot and ELISA.

B1: cBB001 chimeric antibody (murine BB7 variable regions) (antibody, human IgG1, V domains shown)
VH: AVQLVESGGGLVKPGGSLKLSCAASGIIFSSSAMSWVRQTPEKRLEWVATISSGGRSTYYPDSVKGRFTVSRDSAKNTLYLQMDSLRSEDTAIYYCAKLISPYWGQGTTLTVSS
VL: AIKMTQSPSSMYASLGERVIITCKASQDINSYLTWFQQKPGKSPKTLIYLTNRLMDGVPSRFSGSGSGQEFLLTISGLEHEDMGIYYCLQYVDFPYTFGGGTKLEIK
notes: also called chimeric BB7
By EC50 is commonly meant the midpoint of the concentration-response curve. B1: the EC50 in test [1] is 0.0481 nM.

B2: JE12 murine monoclonal antibody (antibody, V domains shown)
VH: EVQLQQSGPELVKPGASVKMSCKASGYRFTSYVMHWVKQKSGQGLEWIGYINPYNDGAKYNEKFKGKATLTSDKSSSTAYMELSSLTSEDSAVYYCARLSSDYWGQGTTLTVSS
VL: DVLMTQNPLSLPVSLGDQASISCRSSQSIEHINGNTYLEWYLQKPGQSPKFLIYKVSNRFSGVPDRFSGSGSGTDFTLRISRVEAEDLGIYYCFQGSHVPFTFGGGTKLEIK
notes: Mouse hybridoma IgG; heavy chain amplified with primer MHCG1, kappa light chain
Regarding B2, in the test with rat TG2, the binding result was “binds”.

B3: DC1 murine monoclonal antibody (antibody, V domains shown)
VH: EVQLVESGGGLVKPGGSLKLSCAASGFTLSTHAMSWVRQTPEKRLEWVATISSGGRSTYYPDSVKGRFTISRDNVKNTLYLQLSSLRSEDTAVYFCARLISTYWGQGTTLTVSS
VL: DITMTQSPSSIYASLGERVTITCKASQDINSYLTWFQQKPGKSPKILIYLVNRLVDGVPSRFSGSGSGQDYALTISSLEYEDMGIYYCLQYDDFPYTFGGGTKLEIK
notes: Mouse hybridoma IgG; heavy chain amplified with primer MHCG1, kappa light chain; also called mDC001
As for B3, the binding result with rat TG2 is given as “binds”.
